This note sets out measurements from PMC3136172, “Stabilization of a G-Quadruplex from Unfolding by Replication Protein A Using Potassium and the Porphyrin TMPyP4”.

One data set addresses RPA-CDE-core (UniProt P27694;P15927;P35244 436-616;45-171;1-121). Put plainly: CD titration (G4 unfolding); 100 mM NaCl, 2 mM Mg2+; efficient unfolding, less than RPA; 25 mM Tris pH 7.5, 2 mM MgCl2, 0.5% inositol, 1 mM DTT, 100 mM NaCl or 100 mM KCl, 25 C; 1.4 uM DNA, protein:DNA ratio 0-5. The note with it: protein: recombinant; tags: N-terminal His-tag, thrombin-cleaved; copies: 1;1;1; intramolecular G4; mixed parallel/antiparallel in K+, antiparallel in Na+.

Data set [1] addresses RPA (full-length replication protein A) (human, UniProt P27694;P15927;P35244 1-616;1-270;1-121). Put plainly: CD titration (G4 unfolding); 100 mM NaCl, 2 mM Mg2+; complete unfolding at RPA:DNA ratio 2; 25 mM Tris pH 7.5, 2 mM MgCl2, 0.5% inositol, 1 mM DTT, 100 mM NaCl or 100 mM KCl, 25 C; 1.4 uM DNA, protein:DNA ratio 0-5. The note with it: protein: recombinant; copies: 1;1;1; intramolecular G4; mixed parallel/antiparallel in K+, antiparallel in Na+.

Sequence of RPA-CDE-core (P27694 436-616, chain 1 of 3): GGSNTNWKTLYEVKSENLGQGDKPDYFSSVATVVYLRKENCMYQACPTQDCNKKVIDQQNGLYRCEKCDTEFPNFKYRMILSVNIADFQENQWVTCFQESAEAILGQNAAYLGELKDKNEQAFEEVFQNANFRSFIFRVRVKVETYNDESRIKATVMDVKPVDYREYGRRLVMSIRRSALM
Sequence of RPA-CDE-core (P15927 45-171, chain 2 of 3): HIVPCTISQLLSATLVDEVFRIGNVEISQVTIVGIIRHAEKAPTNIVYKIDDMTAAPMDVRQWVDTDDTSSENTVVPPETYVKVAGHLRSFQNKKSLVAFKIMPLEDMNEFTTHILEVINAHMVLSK
Sequence of RPA-CDE-core (P35244 whole entry, chain 3 of 3): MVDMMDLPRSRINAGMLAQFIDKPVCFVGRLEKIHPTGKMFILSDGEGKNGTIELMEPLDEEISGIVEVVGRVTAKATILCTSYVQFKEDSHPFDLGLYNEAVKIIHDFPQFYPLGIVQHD
Sequence of RPA (full-length replication protein A) (P27694 whole entry, chain 1 of 3): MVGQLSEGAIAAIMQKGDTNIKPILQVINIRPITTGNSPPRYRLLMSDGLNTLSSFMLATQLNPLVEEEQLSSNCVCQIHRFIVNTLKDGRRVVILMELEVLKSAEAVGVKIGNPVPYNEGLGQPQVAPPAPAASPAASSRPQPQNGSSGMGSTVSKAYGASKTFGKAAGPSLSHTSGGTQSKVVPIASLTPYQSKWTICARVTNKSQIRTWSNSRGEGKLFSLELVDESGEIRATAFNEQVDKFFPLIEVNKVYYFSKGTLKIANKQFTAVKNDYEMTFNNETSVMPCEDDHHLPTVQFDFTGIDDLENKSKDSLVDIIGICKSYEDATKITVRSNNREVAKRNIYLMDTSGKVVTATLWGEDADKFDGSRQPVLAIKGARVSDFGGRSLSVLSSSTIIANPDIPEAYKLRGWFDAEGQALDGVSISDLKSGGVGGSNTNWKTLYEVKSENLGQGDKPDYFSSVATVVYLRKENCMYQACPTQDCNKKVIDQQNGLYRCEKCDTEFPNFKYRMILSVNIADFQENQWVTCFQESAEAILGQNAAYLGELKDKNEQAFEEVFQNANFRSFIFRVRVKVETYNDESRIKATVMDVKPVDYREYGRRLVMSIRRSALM
Sequence of RPA (full-length replication protein A) (P15927 whole entry, chain 2 of 3): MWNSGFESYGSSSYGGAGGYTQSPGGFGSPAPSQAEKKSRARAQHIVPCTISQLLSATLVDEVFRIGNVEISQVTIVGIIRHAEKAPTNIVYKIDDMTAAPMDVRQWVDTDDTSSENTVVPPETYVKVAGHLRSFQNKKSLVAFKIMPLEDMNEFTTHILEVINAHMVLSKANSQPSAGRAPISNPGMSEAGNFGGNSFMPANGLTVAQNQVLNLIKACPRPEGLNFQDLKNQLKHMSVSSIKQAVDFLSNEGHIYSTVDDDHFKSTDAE
Sequence of RPA (full-length replication protein A) (P35244 whole entry, chain 3 of 3): as the sequence (P35244 whole entry, chain 3 of 3) above

B1: Gq23 (structured_DNA)
DNA: TAGGGGAAGGGTTGGAGTGGGTT
As for B1, the binding result (with RPA-CDE-core; in data set [1]) was “binds” each time.
